Literature values, collected in patent US20220370374A1, “TRANSDERMAL ABSORPTION-TYPE PATCH” (KYUSHU UNIVERSITY, NATIONAL UNIVERSITY CORPORATION, priority 2019, published 2022).
Like-named read-outs stand apart in the source and are kept apart here.

For `C[C@@H](O)[C@@H]1NC(=O)[C@H](CCCCN)NC(=O)[C@@H](Cc2c[nH]c3ccccc23)NC(=O)[C@H](Cc2ccccc2)NC(=O)[C@@H](NC(=O)[C@H](N)Cc2ccccc2)CSSC[C@@H](C(=O)N[C@H](CO)[C@@H](C)O)NC1=O` [Octreotide acetate], the solubility (in ethanol, acetic acid, or N-methylpyrrolidone) is given as “freely soluble” and the solubility (in water) is given as “Extremely soluble”.

In the case of Leuprorelin, the solubility (in ethanol) is listed as “slightly insoluble”, the solubility (in methanol) is listed as “soluble” and the solubility (in water or acetic acid) is listed as “freely soluble”.
